From article PMC2132604

Target: p130^Cas, endogenous in CHO cells (Chinese hamster (endogenous in CHO))
Experiment: co-IP

reduction of association relative to wild-type FAK (densitometry): 50%
Substance: FAK P712/715A double point mutant, epitope-tagged, expressed from pCDM8-P712/715A in CHO cells (from UniProt Q00944 1-1053) (enzyme)
